The chains are these.
B1: Prp42 (natural protein)
chain: MDKYTALIHDENFSTLTLNVSRYPKSLAYWEKLLNYIVKASAPICKSTEPQLLKLIRCTYSSMLNEFPYLENYYIDFALLEYKLGNVSMSHKIFQRGLQAFNQRSLLLWTSYLKFCNNVISHQKQLFKKYETAEEYVGLHFFSGEFWDLYLEQISSRCTSSKKYWNVLRKILEIPLHSFSKFYALWLQRIDDIMDLKQLSQLTSKDELLKKLKIDINYSGRKGPYLQDAKKKLKKITKEMYMVVQYQVLEIYSIFESKIYINYYTSPETLVSSDEIETWIKYLDYTITLQTDSLTHLNFQRALLPLAHYDLVWIKYSKWLINSKNDLLGAKNVLLMGLKFSLKKTEIIKLLYSVICKLNEYVLLRNLLEKIESSYSDNVENVDDFEIFWDYLQFKTFCQNSLYSSRYSDSQSNGLLNKELFDKVWKRLSCKEKKSGQEILLNNLVQFYSKDTVEFVEKNIFQKIIEFGWEYYLQNGMFWNCYCRLIYFDTSRSYLDKRQYIVRKIWPQIDKKFAQSVLPSLTEFCESYFPEEMDTLEEMFTEEP
B4: Nam8 (natural protein, S. cerevisiae, UniProt Q00539 1-523, looked up)
chain: MSYKQTTYYPSRGNLVRNDSSPYTNTISSETNNSSTSVLSLQGASNVSLGTTGNQLYMGDLDPTWDKNTVRQIWASLGEANINVRMMWNNTLNNGSRSSMGPKNNQGYCFVDFPSSTHAANALLKNGMLIPNFPNKKLKLNWATSSYSNSNNSLNNVKSGNNCSIFVGDLAPNVTESQLFELFINRYASTSHAKIVHDQVTGMSKGYGFVKFTNSDEQQLALSEMQGVFLNGRAIKVGPTSGQQQHVSGNNDYNRSSSSLNNENVDSRFLSKGQSFLSNGNNNMGFKRNHMSQFIYPVQQQPSLNHFTDPNNTTVFIGGLSSLVTEDELRAYFQPFGTIVYVKIPVGKCCGFVQYVDRLSAEAAIAGMQGFPIANSRVRLSWGRSAKQTALLQQAMLSNSLQVQQQQPGLQQPNYGYIPSSTCEAPVLPDNNVSSTMLPGCQILNYSNPYANANGLGSNNFSFYSNNNATNTQATSLLADTSSMDLSGTGGQQVIMQGSEAVVNSTNAMLNRLEQGSNGFMFA

Holding throughout (assay): cryo-EM structure
Assay [1] addresses T1, Snu71 (S. cerevisiae, UniProt P53207 1-620).
T1 sequence (looked up): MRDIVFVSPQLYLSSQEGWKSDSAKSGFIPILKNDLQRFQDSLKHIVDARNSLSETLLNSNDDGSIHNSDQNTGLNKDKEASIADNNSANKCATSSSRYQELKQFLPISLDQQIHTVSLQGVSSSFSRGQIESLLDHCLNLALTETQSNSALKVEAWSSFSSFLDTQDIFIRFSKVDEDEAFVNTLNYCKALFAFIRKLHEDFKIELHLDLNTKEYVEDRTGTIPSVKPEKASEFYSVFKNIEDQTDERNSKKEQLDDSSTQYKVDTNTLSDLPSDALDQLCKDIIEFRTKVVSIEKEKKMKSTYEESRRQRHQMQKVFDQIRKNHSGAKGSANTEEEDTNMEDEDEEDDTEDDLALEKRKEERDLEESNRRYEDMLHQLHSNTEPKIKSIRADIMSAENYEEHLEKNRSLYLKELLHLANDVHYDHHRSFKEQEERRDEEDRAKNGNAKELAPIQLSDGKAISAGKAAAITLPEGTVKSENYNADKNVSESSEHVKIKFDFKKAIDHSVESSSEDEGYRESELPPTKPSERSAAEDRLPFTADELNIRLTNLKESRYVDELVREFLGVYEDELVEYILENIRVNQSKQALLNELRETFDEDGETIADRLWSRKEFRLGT

Assay [2] has as its target T2, Prp39 (S. cerevisiae, UniProt P39682 1-629).
T2 sequence: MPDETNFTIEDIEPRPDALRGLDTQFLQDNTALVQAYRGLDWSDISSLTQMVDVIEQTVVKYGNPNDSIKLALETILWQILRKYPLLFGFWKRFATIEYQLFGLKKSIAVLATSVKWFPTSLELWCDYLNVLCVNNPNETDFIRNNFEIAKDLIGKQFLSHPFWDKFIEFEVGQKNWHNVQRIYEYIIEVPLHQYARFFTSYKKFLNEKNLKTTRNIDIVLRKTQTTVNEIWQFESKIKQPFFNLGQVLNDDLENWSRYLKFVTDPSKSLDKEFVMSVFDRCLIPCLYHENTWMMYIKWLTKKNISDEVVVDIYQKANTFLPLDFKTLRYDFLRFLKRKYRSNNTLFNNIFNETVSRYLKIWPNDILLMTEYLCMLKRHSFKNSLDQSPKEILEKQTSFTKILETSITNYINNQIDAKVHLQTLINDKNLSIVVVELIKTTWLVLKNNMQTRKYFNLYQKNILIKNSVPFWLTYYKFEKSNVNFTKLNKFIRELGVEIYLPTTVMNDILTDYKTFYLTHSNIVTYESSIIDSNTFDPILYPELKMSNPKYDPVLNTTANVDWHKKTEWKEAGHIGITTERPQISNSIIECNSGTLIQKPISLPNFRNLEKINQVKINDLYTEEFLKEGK

Assay [3] deals with B1.
Assay [4] deals with B4.

For B1, the binding result in assay [1] and in assay [2] was “binds” throughout.

B2: Lea1 (natural protein, S. cerevisiae, UniProt Q08963 1-238, looked up)
chain: MKFTPSIVIDAPQYYVDHFNGKYNVDKCVILRDLQLETDSESMPSSLKHLTKPTHILDLTNNDLIMIPDLSRRDDIHTLLLGRNNIVEVDGRLLPMNVQNLTLSNNSIRRFEDLQRLRRAPRTLKNLTLIGNQVCHLANYREHVLRLVPHLETLDFQNVTAEERKSAMSFPRQADGDTLGPVNTAIRDNGSRDKTMEIMNLVVSKMTVERRNELKKQLAEATSLEEIARLEKLLSGGV
With B2, the binding result in assay [2] was “binds”.

B3: Snu56 (natural protein, S. cerevisiae, UniProt Q03782 1-492, looked up)
chain: MRPRRRGLAYHHTKPKGQLSQGHYPTTSNDGQRRKVGNSEAFQSFDIWKNLDRIRSTKKNAGQFIKGSLLILPMRTEDKQQFDECMDELHKYISKDILRCYPQKEQKDEGMLFYIVLKDFNILDSCFVLSVLLAFQKRLWMAPSEKSYFRVPKNINLTGSFYLPKNIETGRGHIITSYRREQPSSSIVEVGFNVVPDFQQFQVKACHVSKFMNELSNFFSQVEFGKCEANVINYFKREYNRTYSQISLALYELPLIGDGLFDIKSYISKTRPIIETSKAQMIKHISEMKAYNEISGLQGDQFPRQQRPLSNSPSSNSISSSQTIEAGATSYQTQPQRHAVNKPSNVLNSSNRHSGPKTFEDGRYSEGNKPGFMTQDEIKQHCIGTIKASMDAVKKKSSYQILKTYVRCPRQNYIDIVYQNLNDLRSKTNCNIVVLNLNNLHESQMWLESLNTTNYTIFAQAPHPSTIRVISIGGVGEYIVKALELILNILEH
For B3, in assay [1], the binding result is listed as “binds”.

With B4, the binding result in assay [2] and in assay [3] was “binds” throughout.

B5: Yhc1 (natural protein, S. cerevisiae, UniProt Q05900 1-231, looked up)
chain: MTRYYCEYCHSYLTHDTLSVRKSHLVGKNHLRITADYYRNKARDIINKHNHKRRHIGKRGRKERENSSQNETLKVTCLSNKEKRHIMHVKKMNQKELAQTSIDTLKLLYDGSPGYSKVFVDANRFDIGDLVKASKLPQRANEKSAHHSFKQTSRSRDETCESNPFPRLNNPKKLEPPKILSQWSNTIPKTSIFYSVDILQTTIKESKKRMHSDGIRKPSSANGYKRRRYGN
On to B5, for which the binding result in assay [4], in assay [2] and in assay [3] was “binds” throughout.

These data come from paper PMC6141012 (Nature, 2018).
